# Measurements published in patent US8835609B2, “Antigen binding sites to non-functional oligomeric P2X7 receptors and methods of use thereof” (Biosceptre International Limited, priority 2009, dated 2014).
# B1: WT Fab: recombinant Fab of wildtype 2F6 expressed in E. coli (antibody, V domains shown)
# VH: DVKLVESGGGLVKLGGSLKLSCAASGFTFSSYYMSWVRQTPEKRLELVAAINSNGGSTYYPDTVKGRFTISRDNAKNTLYLQMSSLKSEDTAFYYCTRHYSSRFFDVWGAGTTVTVSS
# VL: MADIVMTQSQKFMSTSVGDRVSVTCKASQNVGTNVAWYQQKPGQSPKALIYSASFRYSGVPDRFTGSGSGTDFTLTISNVQSEDLAEFFCQQYNSYPFTFGSGTRLEIK
# B2: 2F6 IgM: hybridoma clone 2F6, mouse IgM with Kappa light chains, raised to P2X7 E200-300; CDR3 HYSSRFFDV (antibody, V domains shown)
# VH: B1 VH
# VL: B1 VL
# modifications: IgM constant regions
# notes: hybridoma clone 2F6, mouse IgM with Kappa light chains, raised to P2X7 E200-300; CDR3 …
# B3: 2F6 IgG2a: 2F6 VH and VL chains spliced into a mouse IgG2a sequence, expressed in HEK293 cells (antibody, V domains shown)
# VH: B1 VH
# VL: B1 VL
# Assays:
# Colo205 cells = assay: ApoOne apoptosis assay, caspase 3/7 activity; assay type: cell-based, human; conditions: for Caspase 3/7 activation: COLO205, 3 day time course, antibodies up to 40 ug/mL
# Method: FIG. 11. Mechanism of Cell Death Induced by 2F6 with Caspase 3/7 Activation Associated with Reactivation of Apoptosis. […] In contrast, the absence of drug or antibody has no effect (cells only column).
# A mode of action by which the 2F6 is able to inhibit cell growth was determined by an ApoOne apoptosis assay in which caspase 3/7 activity was measured in combination with cell growth through the Cell Titer Blue assay. Colo205 cells were grown in a 3-day growth assay with increasing 2F6 from 0-40 ug/mL. The gemcitabine positive control was added to establish the degree of apoptosis that may be elicited by the presence of bound antibody.
# Lewis Lung (LL) tumour = assay: Lewis Lung (LL) syngeneic xenograft model, lung metastases; assay type: in vivo, mouse; conditions: 5 mL/kg daily; Day 11
# Method: Dosing occurred every 3 days at antibody concentrations of 1 or 10 mg/kg i.v. or with PBS for treatment control or Sorafenib at 5 mL/kg daily as a positive control in the Lewis Lung model. Mice were randomised into equal groups of 10 mice, based on tumour volume on Day 0 of the studies.
# Mice were anaesthetised for blood collection and euthanised by exsanguination via terminal cardiac bleed 48 hours post-final dose, on Days 11 or 14 post-initial treatment.
# The lungs were excised from all mice. Lung surface metastases were counted and were categorised according to size: small (<1 mm), medium (≧1 mm and <3 mm) and large (≧3 mm). Excised lungs were preserved in 10% neutral buffered formalin.
# The syngeneic Lewis Lung model was used with additional control groups. Besides the PBS control group of ten mice (Group 1), a positive control group using daily Sorafenib at 5 mL/kg was included (Group 5) along with antibody treatment groups consisting of sheep affinity purified E200-300 polyclonal antibody at 10 mg/kg (Group 2), 2F6-hIgG1 at 1 mg/kg (Group 3) and 2F6-hIgG1 at 10 mg/kg (Group 4).
# [1] = biological target: T1, non-functional receptors on live COLO-205 cells (Homo sapiens, UniProt Q99572); assay: Flow cytometry binding to live COLO205 cells; assay type: cell-based; conditions: FLAG-tagged Fabs; anti-FLAG secondary
# T1 construct: endogenous in cells; host or cells: COLO-205 (human colorectal tumour cells)
# T1 sequence (Q99572 1-595): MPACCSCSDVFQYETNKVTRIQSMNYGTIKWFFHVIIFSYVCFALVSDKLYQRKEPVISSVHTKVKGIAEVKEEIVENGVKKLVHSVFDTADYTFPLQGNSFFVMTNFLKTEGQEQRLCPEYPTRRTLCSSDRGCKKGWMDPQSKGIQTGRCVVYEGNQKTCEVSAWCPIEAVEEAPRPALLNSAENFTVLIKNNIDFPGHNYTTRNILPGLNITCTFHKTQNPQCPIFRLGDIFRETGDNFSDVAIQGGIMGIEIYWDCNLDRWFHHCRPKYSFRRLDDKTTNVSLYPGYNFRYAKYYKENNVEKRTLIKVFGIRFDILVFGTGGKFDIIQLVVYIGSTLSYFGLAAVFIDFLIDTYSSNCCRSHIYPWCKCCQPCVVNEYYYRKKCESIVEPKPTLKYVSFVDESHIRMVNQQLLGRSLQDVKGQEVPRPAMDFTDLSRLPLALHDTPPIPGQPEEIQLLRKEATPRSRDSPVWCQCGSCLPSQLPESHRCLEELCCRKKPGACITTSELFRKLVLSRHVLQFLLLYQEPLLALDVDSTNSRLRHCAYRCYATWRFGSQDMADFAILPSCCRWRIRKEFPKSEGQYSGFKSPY
# Description: (§1) FIGS. 19(a)-(b). (a) Flow cytometry results for binding recombinant Fabs to live colorectal COLO205 tumour cells. A Sigma anti-FLAG secondary antibody (#F4049) was used to detect the binding of the primary antibodies. WT 2F6 Fab bound weakly over the same concentration range. The EC50 for the four lead Fabs is very similar to the values obtained from ELISA measurements. (b) Very similar improved binding results were obtained for prostate PC3 cells.
# (§2) Flow cytometry was used to measure the enhanced binding of selected affinity matured recombinant Fabs in human COLO-205 and PC3 cell lines over that of the starting 2F6 sequence. Recombinant FLAG-tagged Fabs were bound to cells and detected using a Sigma F4049 murine monoclonal anti-FLAG antibody conjugated to FITC used at a concentration of 1:75. Affinity purified sheep 200-300 antibody was examined for direct comparison with the 2F6 mIgG2a WT by Flow to PC3 cells.
# [2] = biological target: T2, E200-300 epitope of P2X7 receptor (Homo sapiens, UniProt Q99572, INS205RNILPGGA); assay: ELISA against immobilised antigen E200-300; assay type: binding
# T2 construct: added C-terminal Cys (attachment point for BSA, DT, ovalbumin or KLH via MCS); purchased Chiron Mimotopes; host or cells: solid phase peptide synthesis
# T2 sequence (Q99572 with tags, fused parts or gaps isoform Q99572-5 INS205RNILPGGA): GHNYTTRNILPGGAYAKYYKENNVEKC
# Method: FIG. 18. ELISA of IgM, IgG2a and Fab Leads. Lead Affinity Matured 2F6-Derived Fab ELISA (scale 0.01-12.5 ug/mL for IgM and IgG2a; 0.1-100 ug/mL for Fabs).
# The 2F6 VH and VL gene fragments were amplified and assembled into an E. coli expression/secretion vector. Both the 2F6 scFv and Fab were transformed into E. coli and expression of the gene construct induced. The E. coli cultures were harvested 5 hours post induction and the scFv and Fab analysed for binding using ELISA and Biacore against immobilised antigen E200-300.
# Mutagenesis of the 2F6 scFv was introduced through a combination of error prone PCR, NNK randomisation and sequence length variation of HCDR3. A mutated library in the phagemid vector was of order 1×10^7. Screening of the library for higher affinity mutants employed a combination of phage display with filter expression assays using biotinylated E200-300 antigen. A selection of higher affinity scFv lead phage clones underwent small scale expression of soluble antibody fragments with affinities measured using ELISA and Biacore.
# MCF-7 cells = assay: Direct cell killing, confocal microscope images; assay type: cell-based; conditions: 20 ug/mL; 24 hours exposure
# Method: FIG. 12. Direct Cell Killing by 2F6 IgM. Confocal microscope images of MCF-7 cells in presence of control IgM antibody (a) and 2F6 IgM (b) for 24 h.
# [3] = tested on: MCF-7 breast cancer cell line; assay: Cell Titer Blue cell growth inhibition with peptide blocking, MCF-7; assay type: cell-based; conditions: for growth inhibition after pre-incubation of antibody with soluble peptide epitope: 3 days
# Method: FIG. 10. Blocking Reaction in Cell Killing Assay. The Cell Titer Blue cell growth inhibition assay is used over three day cell growth with MCF-7 breast cancer cell line. Note the viable control cells in the right column have no antibody or peptide. The left hand column is the signal derived from the cells incubated with 10 ug/mL 2F6 IgM antibody containing 500 ug/mL peptide epitope (E200-300 epitope described as 200/300 in Figure), sufficient to block the cell growth inhibition evidenced by the data in the three central columns that show growth inhibition is not affected by the presence of 50 ug/mL, 5 ug/mL or 0 ug/mL peptide respectively.
# (§3) Cells were seeded at appropriate density and grown over a 3-day or 5-day period to reach a level close to confluence at the end of the test period in the presence of control antibodies and in the presence of test antibodies, either IgM or IgG2a types of 2F6 over the concentration range 0-40 ug/mL. Testing of cell line growth was conducted with seed densities ranging from 100-2000 cells/well.
# [4] = tested on: prostate PC3, colon COLO205, breast MDAMB231, melanoma A375 and breast MCF7; assay: Cell Titer Blue assay of cell growth, range of cancer cell lines; assay type: cell-based; conditions: for cell growth: 3-day or 5-day growth, antibody 0-40 ug/mL
# Method: (§4) FIGS. 9(a)-(d). (a) In Vitro Cell Inhibition Assays. […] Growth over 5 days is inhibited to a greater extent than over 3 days. The growth data is plotted relative to the control growth curves obtained using the control IgM antibody.
# as §3
# COLO205 = assay: Cell Titer Blue cell growth assay, COLO205; assay type: cell-based, human
# Method: as §4, §3
# [5] = biological target: T3, non-functional receptors on live PC3 cells (Homo sapiens, UniProt Q99572); assay: Flow cytometry binding to PC3 cells; assay type: cell-based
# T3 construct: endogenous in cells; host or cells: PC3 (human prostate tumour cells)
# T3 sequence (Q99572 1-595): T1 sequence (Q99572 1-595)
# Description: as §1
# FIG. 20. A comparison was made with various preparations of recombinant 2F6 IgG2a to determine the relative binding strength of the WT formatted antibody to PC3 cells compared with the affinity matured Fabs. Rockland IgG2a #010-001-332 was used for control to determine background (diamond).
# as §2
molecule,measurement,setting,value
"Nc1ccn([C@@H]2O[C@H](CO)[C@@H](O)C2(F)F)c(=O)n1 [Gemcitibine, gemcitabine, reference compound]",Caspase 3/7 activation,Colo205 cells,activate caspases
"CNC(=O)c1cc(Oc2ccc(NC(=O)Nc3ccc(Cl)c(C(F)(F)F)c3)cc2)ccn1 [Sorafenib, reference compound]",Mean Lung Surface Mets,Lewis Lung (LL) tumour,0.1
same,inhibition of lung metastases relative to PBS control,Lewis Lung (LL) tumour,96%
B1,binding to live COLO205 cells,[1],bound weakly
same,binding compared with selected affinity matured leads,"[2]; ELISA, Fab format",much lower (2-logs) binding
same,EC50 (ELISA),"[2]; scale 0.01-12.5 ug/mL for IgM and IgG2a, 0.1-100 ug/mL for Fabs",very low EC50
B2,cell death (confocal images),MCF-7 cells,many cells are already dead
same,growth inhibition after pre-incubation of antibody with soluble peptide epitope,"[3]; 10 ug/mL antibody, E200-300 peptide 500 ug/mL",no longer able to affect cell growth
same,growth inhibition after pre-incubation of antibody with soluble peptide epitope,"[3]; 10 ug/mL antibody, E200-300 peptide 5-50 ug/mL",no effect on the inhibition
same,MCF7 cell growth,"[3]; 10 ug/mL antibody, over 3 days",greatly inhibits cell growth
same,MCF-7 cell growth,[3]; after 5 days of exposure,Total inhibition of cell growth
same,cell growth,[4],inhibited cell growth
same,COLO205 growth,"COLO205; over 3 days, relative to control IgM",significantly inhibited
same,COLO205 cells,"COLO205; over 5 days, even at low dose of 2.5 ug/mL",eliminated
same,Caspase 3/7 activation,Colo205 cells,steady increase
same,antibody concentration sufficient to initiate full caspase 3/7 (apoptosis) activity,"Colo205 cells; Colo205, 3-day growth assay",20 to 40 µg/mL
B3,binding to PC3 cells,[5],comparable to the binding elicited by the lead Fabs
same,cell growth,[4],inhibited cell growth
same,cell growth inhibition compared with the IgM form,[4]; over 3 days,weaker cell inhibition
